How the values were obtained:
[1] = target: Tissue factor (residues 1–209), soluble, immobilised on CNBr-activated sepharose-4B; assay: radioligand binding; as a1 but after 1 hour of incubation of 111In-DTPA-rFVIIa in 270 uL human serum at room temperature before the sepharose was added; binding 1 h at room temperature; median of 3
[2] = target: Tissue factor (residues 1–209), soluble, immobilised on CNBr-activated sepharose-4B; assay: radioligand binding; 111In-DTPA-rFVIIa incubated 1 h at room temperature with TF (1–209)-sepharose (50% suspension) in assay buffer (10 mM glycyl-glycine, 150 mM NaCl, 10 mM CaCl2, 0.1% BSA, pH 7.5); beads and filtrate separated in Spin-X filter tubes and counted; median of 3 labellings
[3] = target: Tissue factor (residues 1–209), soluble, immobilised on CNBr-activated sepharose-4B; assay: radioligand binding; as a1 but in human serum, 0 hour (no incubation in serum before the sepharose was added); binding 1 h at room temperature; median of 3

111In-DTPA-rFVIIa (111Indium-labelled, DTPA-conjugated recombinant activated coagulation factor VII) (enzyme)
binding efficiency (%) [1]: 36% | binding efficiency (%) [2]: 48% | binding efficiency (%) [3]: 39%
